Source: PMC8922245, “The Structure of the Arabidopsis PEX4-PEX22 Peroxin Complex—Insights Into Ubiquitination at the Peroxisomal Membrane” (Frontiers in Cell and Developmental Biology, 2022)

T1: Arabidopsis thaliana PEX22 residues 111-283 (soluble PEX4-interacting domain) (Arabidopsis thaliana, UniProt Q9LSX7 111-283)
T1 construct: two N-terminal residues left from the PreScission cleavage site (LEVLFQ|GP); Made on one chain with His6-MBP-PEX4 and separated from it by PreScission cleavage; also called At PEX22; source: purified (Ni-NTA), released with PreScission protease
T1 sequence: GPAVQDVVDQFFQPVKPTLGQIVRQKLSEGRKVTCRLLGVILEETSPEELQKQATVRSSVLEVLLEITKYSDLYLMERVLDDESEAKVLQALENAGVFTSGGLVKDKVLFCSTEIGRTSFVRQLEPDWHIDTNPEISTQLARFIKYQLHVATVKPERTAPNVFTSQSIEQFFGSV


Tests used:
[1] = molecular target: Pex22 (Saccharomyces cerevisiae) (UniProt P39718); details: cited from earlier work
[2] = molecular target: T1, Arabidopsis thaliana PEX22 residues …; test: pull-down; purified fusion cut with PreScission protease; His6-MBP-PEX4 or His6-MBP-pex4^P123L held on Ni-NTA resin, 1 h at 4°C; washed with buffer A (25 mM HEPES pH 8, 300 mM NaCl, 5% glycerol, 1 mM TCEP), eluted with buffer B (500 mM imidazole); SDS-PAGE and Coomassie staining; details: both partners purified
[3] = molecular target: T1, Arabidopsis thaliana PEX22 residues …; test: crystal structure; PEX4-PEX22^111-283 complex from the cleaved fusion, 20 mg/mL in 20 mM Tris pH 7.5, 200 mM NaCl, 1 mM DTT; sitting drop vapor diffusion at 20°C; 100 mM NaCl, 100 mM Bis-Tris Propane pH 9.0, 25% (w/v) PEG 1,500; details: both partners purified

Sequence of Pex22 (Saccharomyces cerevisiae) (P39718 whole entry, the tested form may be a part): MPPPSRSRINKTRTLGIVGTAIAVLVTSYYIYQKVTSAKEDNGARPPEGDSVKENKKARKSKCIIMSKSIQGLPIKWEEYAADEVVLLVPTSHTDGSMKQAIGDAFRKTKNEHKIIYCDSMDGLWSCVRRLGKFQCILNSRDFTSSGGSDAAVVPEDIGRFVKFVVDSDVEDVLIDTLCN
Sequence of Pex4 (P29340 whole entry): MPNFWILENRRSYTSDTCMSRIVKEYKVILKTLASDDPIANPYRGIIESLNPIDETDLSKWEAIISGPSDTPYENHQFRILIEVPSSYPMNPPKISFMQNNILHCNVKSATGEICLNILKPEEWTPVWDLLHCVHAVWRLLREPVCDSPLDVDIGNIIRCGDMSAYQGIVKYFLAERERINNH

Molecule	binding result [2]	also measured
Pex4 (from UniProt P29340)	–	Kd [1]: 2 nM
His6-MBP-PEX4 (Arabidopsis thaliana PEX4, full-length, after PreScission cleavage of the fusion) (enzyme, PEX4 (UBC21), Arabidopsis thaliana, At5g25760, full-length without stop codon; C-terminal residues left from the PreScission cleavage site (LEVLFQ|GP); His6-MBP is joined to PEX4 by a linker with an uncut TEV site (ENLYFQ|S); source: purified (Ni-NTA), cleaved with PreScission protease only; not shown: His6, N-terminal, kept; MBP, N-terminal, kept) MQASRARLFKEYKEVQREKVADPDIQLICDDTNIFKWTALIKGPSETPYEGGVFQLAFSVPEPYPLQPPQVRFLTKIFHPNVHFKTGEICLDILKNAWSPAWTLQSVCRAIIALMAHPEPDSPLNCDSGNLLRSGDVRGFNSMAQMYTRLAAMPKKGLEVLFQ	binds	–
His6-MBP-pex4^P123L (pex4-1 protein, after PreScission cleavage of the fusion) (enzyme, Arabidopsis thaliana, PEX4 (UBC21), Arabidopsis thaliana, At5g25760, full-length without stop codon, with the pex4-1 missense change P123L; C-terminal residues left from the PreScission cleavage site (LEVLFQ|GP); pex4-1 is a missense allele isolated in a forward-genetic screen; His6-MBP is joined by a linker with an uncut TEV site (ENLYFQ|S); source: purified (Ni-NTA), cleaved with PreScission protease only; not …) MQASRARLFKEYKEVQREKVADPDIQLICDDTNIFKWTALIKGPSETPYEGGVFQLAFSVPEPYPLQPPQVRFLTKIFHPNVHFKTGEICLDILKNAWSPAWTLQSVCRAIIALMAHPEPDSLLNCDSGNLLRSGDVRGFNSMAQMYTRLAAMPKKGLEVLFQ	binds	–
Arabidopsis thaliana PEX4 (full-length, His6-MBP removed) (enzyme, one residue left after the TEV protease cleavage site (ENLYFQ|S); residue 0 at the N-terminus; PEX4 (UBC21), Arabidopsis thaliana, At5g25760, full-length without stop codon, residues 1-157; six C-terminal residues left from the PreScission cleavage site (LEVLFQ|GP); residues 158-163; Model in PDB 6XOD holds residues 1-154; residue 0, 155-157 and 158-163 were disordered; also called At PEX4; …) SMQASRARLFKEYKEVQREKVADPDIQLICDDTNIFKWTALIKGPSETPYEGGVFQLAFSVPEPYPLQPPQVRFLTKIFHPNVHFKTGEICLDILKNAWSPAWTLQSVCRAIIALMAHPEPDSPLNCDSGNLLRSGDVRGFNSMAQMYTRLAAMPKKGLEVLFQ	–	binding result [3]: binds
